The record followed here is doi:10.1101/2024.12.06.627168.

The target of one data set is MYC 304-354 WT (RBRIII) (UniProt P01106-1 304-354). The data set can be described thus: fluorescence anisotropy. On the technique in general: In fluorescence polarisation assays a small probe gives low polarisation when free and higher when bound to something large.
The target of a further data set is MYC 304-354 RBRIIIMUT (UniProt P01106-1 304-354, R316A;K317A;R331A;R334A;R340A;K341A). The data set can be described thus: fluorescence anisotropy.

Chain of MYC 304-354 WT (RBRIII) (P01106 319-369): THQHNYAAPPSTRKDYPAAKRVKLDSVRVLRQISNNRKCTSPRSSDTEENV

In the case of GUGCAUGGGCAUGUGUGCUGUGUGUGUGCAGGCGACCGUAAACA (ssRNA) [PTDSS2 RNA oligo], the figures for the binding result with MYC 304-354 WT (RBRIII) and with MYC 304-354 RBRIIIMUT were “binds” and “no binding”, respectively.
